Results published in the supplement of paper PMC9170038.

Test system: MS2 coat protein
Experiment: apparent KD of MS2 coat protein; designed switch direction (-1 OFF switch, 1 ON switch): -1; higher = weaker reporter binding
Procedure, shortened: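 Designed RNA switches were transcribed on Illumina chips by stalled E. coli RNA polymerase and titrated with SNAP-549-labelled MS2 coat protein from 0.7 or 1.5 nM, doubling to 3 µM. Step length ran from 0.8–1.5 h at the lowest concentration to 10–20 min at the highest. The apparent KD is the median over clusters for each design, from curve-fitted normalised cluster fluorescence.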

[1] = Eterna round: R95, input ligand: microRNA oligo, concentration not stated
[2] = input ligand: microRNA oligo, concentration not stated
[3] = Eterna round: R95, input ligand: FMN 200 uM
[4] = Eterna round: R95, input ligand: none

Row | Sequence | apparent KD of MS2 coat protein [1] [nM] | apparent KD of MS2 coat protein (input ligand: FMN 200 uM) [nM] | apparent KD of MS2 coat protein [2] [nM] | apparent KD of MS2 coat protein (input ligand: none) [nM] | apparent KD of MS2 coat protein [3] [nM] | apparent KD of MS2 coat protein [4] [nM]
1 | UGCAUGCUAGGAUAUACGAAACAUUAGGGUUCGUCGUAUGAACAUGAGGAUCACCCAUGUAGAAGGAGCGUGCU [Mod6 of JL-ex2-2.15 mat747 mod] (puzzle: Exclusion 2) | 16.8 |  |  |  |  | 
2 | UGCAUGCUAGGAUAUACGGGACAUUAGGGUUCGUCGUAUGGACAUGAGGAUCACCCAUGUAGAAGGAGCGUGCU [Mod4 of JL-ex2-2.15 mat747 mod] (puzzle: Exclusion 2) | 18.7 |  |  |  |  | 
3 | UGCCCGGUUAGAGGAUAUCUACUGUGACUGGGUUUUCCAAAACAUGAGGAUCACCCAUGUGACGGAGAGAAGGCUAGCCUUAAA [Anedanage] (Eterna round: R96, puzzle: Exclusion NG 2) |  | 26.8 | 31.1 | 40.1 |  | 
4 | UGCCUAUGAGGAUAUACGUAGAAAUAGAUUCAUGUAAAACUACAUGAGGAUCACCCAUGUAGAAGGCAUGGGCU [Mat - Exclusion 2 - JL Mod - D49] (Eterna round: R97, puzzle: Exclusion 2) |  | 27.5 |  | 16 |  | 
5 | UGCGAAGAGUGAGGAUAUGUGCGACAAAGUUGCACAGAAGGCACAUGAGGAUCACCCAUGUGAGCUAGGUCGAAAGACCUAGCG [Omei Exc(NG)1 Av7] (Eterna round: R96, puzzle: Exclusion NG 1) |  | 43.4 | 17.3 | 24.8 |  | 
6 | UGCGAGUAAGGAUAUUCGCGACCACCCACAAGGGCGGUCGAGAAGAAGGUACUUGAGGAUCACCCAAGUCCUAA [Inraindi] (Eterna round: R97, puzzle: Exclusion 4) |  | 95.5 |  | 20.2 |  | 
7 | UGCGUUCAAGGAUAUACAUGAGGAUCACCCAUGUGGAUGGCCGUUGUGUGAACACUUAGUAGAAGGUGACACGG [Eternabot (L2) Solution 5] (Eterna round: R97, puzzle: Exclusion 3) |  | 51.8 |  | 71.2 |  | 
8 | UGCUACGGAGGAUAUACAUGAGGAUCACCCAUGUGAGAGAUUUAGCCGAGAGGCUAGUGUAGAAGGCCGUAGCU [jl-ex3-4.17 jl mod] (Eterna round: R97, puzzle: Exclusion 3) |  | 400 |  | 62.8 |  | 
9 | UGCUGACGAGGAUAUACAUGAGGAUCACCCAUGUAAGAUCAGCGACGAUAGUCGCAAUGUAGAAGGCGUCAGCA [E3/10-A3] (Eterna round: R97, puzzle: Exclusion 3) |  | 228 |  | 28.5 |  | 
10 | UGCUGACGAGGAUAUACAUGAGGAUCACCCAUGUUGGUUCAGCGACGAUAGUCGCAAUGUAGAAGGUGUCAGCA [E3/9-B2] (Eterna round: R97, puzzle: Exclusion 3) |  | 748 |  | 97.2 |  | 
11 | UGCUGACGAGGAUAUACAUGAGGAUCACCCAUGUUGGUUCAGCGACUUCGGUCGCAAUGUAGAAGGCGUCAGCA [E3/9-A5] (Eterna round: R97, puzzle: Exclusion 3) |  | 230 |  | 523 |  | 
12 | UGGAGUAUGUAGGAUAUUCAGGCAAAGAAAGCCGAAGAAGGACAUACUUGAGGAUCACCCAAGUUGUCCAAAAU [Zaanatatri] (Eterna round: R97, puzzle: Exclusion 6) |  | 25.8 |  | 15.1 |  | 
13 | UGGCCACAUGAGGAUCACCCAUGUCAGGAUAUCGGAUAUAUUGUGGUUUUAAGACCAACGAGAAGGGACGGGUC [Eternabot (L1) Solution 9] (Eterna round: R97, puzzle: Exclusion 1) |  | 119 |  | 139 |  | 
14 | UGGGAACGAGGAUAUCGAUGGUGGAACAUGAGGAUCACCCAUGUAUGAGAUAGUGUAGGGCGAGAAGGCGUUAAGU [JR_E5_Sub052] (puzzle: Exclusion 5) | 76.7 |  |  |  |  | 
15 | UGGGUUACAGGAUAUACAUGAGGAUCACCCAUGUCAUGUUUCGUGGCGGAUAGCUCGAGUAGAAGGGUGCAUCC [Diorus] (puzzle: Exclusion 3) | 36.6 |  |  |  |  | 
16 | UGGGUUACCCAUGGAAGUAACAUGAGGAUCACCCAUGUAGGGCAAGUUUUUUGUUCGUCAUAGGCCGUGGGUUUGGA [JR_SV3TOV1_Sub021] (puzzle: Sensor v3, turn-off variant 1) | 56.8 |  |  |  | 30.4 | 32.4

Row | Sequence | apparent KD of MS2 coat protein [1] [nM] | apparent KD of MS2 coat protein (input ligand: FMN 200 uM) [nM] | apparent KD of MS2 coat protein [2] [nM] | apparent KD of MS2 coat protein (input ligand: none) [nM] | apparent KD of MS2 coat protein [3] [nM] | apparent KD of MS2 coat protein [4] [nM]
17 | UGGUGUUACGUAGGAUAUUGUCAACAGGCAGUAGGAUAUGCGAAAGCAGAAGGACCGCCAACAGGCGAGAAGGACGGGUUACCU [pwkr exNG2 2xF7 2xFMN.8] (Eterna round: R96, puzzle: Exclusion NG 2) |  | 136 | 145 | 211 |  | 
18 | UGGUUGUCAGGAUAUACGGUUUUUAACUUUAGUUUUAUAUUGUAGAAGGGACAUGAGGAUCACCCAUGUUACGU [LRO-Excl4-11-Bluer Omei Mod] (Eterna round: R97, puzzle: Exclusion 4) |  | 29.5 |  | 26.5 |  | 
19 | UGUAACCGAGGAUAUACAUGAGGAUCACCCAUGUAAUGUAGUAUAGUGUAUGUAAGGUGUAGAAGGUGGGAUGU (Eterna round: R97, puzzle: Exclusion 3) |  | 48.4 |  | 74.7 |  | 
20 | UGUAAGCUAGGAUAUGCUUUGGGAAAGCAUUCCUUCGAUAAACUUGAGGAUCACCCAAGUAGAAGGAGCUUACC [salish99_ex2_r4_008] (Eterna round: R97, puzzle: Exclusion 2) |  | 12.7 |  | 10.9 |  | 
21 | UGUACGAUGCGUGCUGACAUGCGUCGUGCAGCAGGUGAUACAUGAGGAUCACCCAUGUCCUCAUUUGCUCGUCUUAU [Mat - Sensor v3 - Turn-off var 2 - D23] (puzzle: Sensor v3, turn-off variant 2) | 218 |  |  |  | 53.5 | 55.6
22 | UGUACUAUGCGAGCUGACUUGCGUAGUGCAGCAGGUGUAACAUGAGGAUCACCCAUGUCCUCAUUUGCUCGUCUUAA [Mat - Sensor v3 - Turn-off var 2 - D10] (puzzle: Sensor v3, turn-off variant 2) | 196 |  |  |  | 458 | 388
23 | UGUCUGUCAGGAUAUCCAGAAGAGAAGAAAGUAAGAUGAGUGGAGAAGGGACAUGAGGAUCACCCAUGUAAUUA [My frist] (puzzle: Exclusion 4) | 29.7 |  |  |  |  | 
24 | UGUGCGUAUGUGAGGAUAUGCUGGUCCUUGGAUCGGCAGAAGGCACAUGAGGAUCACCCAUGUGGUGUCGUACG [salish99_Bmod_ex4_079] (puzzle: Brourd's mod of Exclusion 4) | 82.8 |  |  |  | 191 | 142
25 | UGUGUACAUGAGGAUCACCCAUGUCAGGAUAUCUAGGCUCUCUCACUGACAACAGCCAAGAGAAGGGACGAGGU [EX1 B.7] (Eterna round: R97, puzzle: Exclusion 1) |  | 36.3 |  | 29.5 |  | 
26 | UGUUGUCGCGCAGGAUAUGAGGAUCACCCAUAUACAGGAUAUGAAAAGAAGGGUCUGAGGAUUACCCAGAAGGGCGGGACAACU [pwkr exNG2 2xF5 2xFMN.26] (Eterna round: R96, puzzle: Exclusion NG 2) |  | 386 | 59.1 | 88 |  | 
27 | UGUUGUCGCGCAGGAUAUGGCCAACAGGCCCUAGGAUAUCGGAAACGAGAAGGAGCGCCAACAGGCGAGAAGGGCGGGACAACU [pwkr exNG2 2xF7 2xFMN.18] (Eterna round: R96, puzzle: Exclusion NG 2) |  | 85.9 | 912 | 995 |  | 
28 | UGUUGUCGCGUAGGAUAUGAGGAUCACCCAUAGAAGGAUAUCGAAAGAGAAGGUCUGAGGAUUACCCAGAAGGACGGGACAACU [pwkr exNG2 2xF5 2xFMN.14] (Eterna round: R96, puzzle: Exclusion NG 2) |  | 682 | 160 | 151 |  | 
29 | UGUUGUCGCGUAGGAUAUGAGGAUCACCCAUAUAGAGGAUAUGAAAAGAAGGCUCUGAGGAUCACCCAGAAGGACGGGACAACU [pwkr exNG2 2xF5 2xFMN.24] (Eterna round: R96, puzzle: Exclusion NG 2) |  | 1720 | 214 | 207 |  | 
30 | UGUUGUUACGCAGGAUAUGAGGAUCACCCAUAGUAGGAUAACGAAAGUGAAGGACUGAGGAUUACCCAGAAGGGCGGGUUAACA [pwkr exNG2 2xF5 2xFMN.3] (Eterna round: R96, puzzle: Exclusion NG 2) |  | 1010 | 101 | 154 |  | 
31 | UGUUGUUACGCAGGAUAUGUAUGAGGAUCACCCAUAAGAGUUGAUGUACCAUGAGGAUCACCCAUGUAGAAGGGCGGGUUAACA [pwkr exNG2 2xF5 1xFMN.9] (Eterna round: R96, puzzle: Exclusion NG 2) |  | 365 | 194 | 234 |  | 
